This assay addresses Chaperonin-containing TCP-1 (CCT) oligomeric complex (human (endogenous in T47D)) (UniProt P17987). Put plainly: native gel or EMSA; native PAGE of T47D CCT2-FLAG cell lysates; blotted for FLAG, CCT2 and CCT3; oligomeric complex against free monomer.

B1: CCT2-FLAG (FLAG-tagged CCT2, FLAG tag on the C-terminal of CCT2) (natural protein)
chain: MASLSLAPVNIFKAGADEERAETARLTSFIGAIAIGDLVKSTLGPKGMDKILLSSGRDASLMVTNDGATILKNIGVDNPAAKVLVDMSRVQDDEVGDGTTSVTVLAAELLREAESLIAKKIHPQTIIAGWREATKAAREALLSSAVDHGSDEVKFRQDLMNIAGTTLSSKLLTHHKDHFTKLAVEAVLRLKGSGNLEAIHIIKKLGGSLADSYLDEGFLLDKKIGVNQPKRIENAKILIANTGMDTDKIKIFGSRVRVDSTAKVAEIEHAEKEKMKEKVERILKHGINCFINRQLIYNYPEQLFGAAGVMAIEHADFAGVERLALVTGGEIASTFDHPELVKLGSCKLIEEVMIGEDKLIHFSGVALGEACTIVLRGATQQILDEAERSLHDALCVLAQTVKDSRTVYGGGCSEMLMAHAVTQLANRTPGKEAVAMESYAKALRMLPTIIADNAGYDSADLVAQLRAAHSEGNTTAGLDMREGTIGDMAILGITESFQVKRQVLLSAAEAAEVILRVDNIIKAAPRKRVPDHHPC
The molecule B1 had a percent of the total FLAG signal as free monomer of 24%.
